12 molecules from patent publication US20260071002A1 (Hoffmann-La Roche, published 2026) can be followed below.

Where two headings read alike, the source gives them in different places.

Experiment [1] deals with T1, human CEACAM5 (human, UniProt P06731 35-685).
T1 construct: whole, on cells; Target on MKN-45 (DSMZ ACC409) and LS180 (ATCC CL-187) cells; also called carcinoembryonic antigen-related cell adhesion molecule 5; CD66e
T1 sequence (looked up): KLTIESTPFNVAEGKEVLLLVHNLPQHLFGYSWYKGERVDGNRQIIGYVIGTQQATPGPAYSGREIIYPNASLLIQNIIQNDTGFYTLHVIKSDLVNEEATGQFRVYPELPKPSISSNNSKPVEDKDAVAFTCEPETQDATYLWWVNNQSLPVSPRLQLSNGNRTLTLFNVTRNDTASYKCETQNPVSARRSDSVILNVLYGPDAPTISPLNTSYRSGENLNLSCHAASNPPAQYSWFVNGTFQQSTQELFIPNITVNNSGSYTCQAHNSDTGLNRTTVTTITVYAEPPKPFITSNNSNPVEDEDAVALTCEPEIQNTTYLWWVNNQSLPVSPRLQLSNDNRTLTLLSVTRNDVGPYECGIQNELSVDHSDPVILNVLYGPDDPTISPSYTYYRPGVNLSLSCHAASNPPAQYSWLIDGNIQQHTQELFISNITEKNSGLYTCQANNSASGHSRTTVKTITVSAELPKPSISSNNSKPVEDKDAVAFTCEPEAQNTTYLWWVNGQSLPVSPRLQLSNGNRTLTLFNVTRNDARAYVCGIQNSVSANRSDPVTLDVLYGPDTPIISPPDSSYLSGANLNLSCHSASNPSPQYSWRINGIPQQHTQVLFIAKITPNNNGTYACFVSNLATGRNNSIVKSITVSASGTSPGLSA
Put plainly: FACS on MKN-45 cells expressing human CEACAM5. How it is done: (§1) 10 μl of a 1×10⁴ MKN-45 (DSMZ ACC409) cell suspension in assay buffer was seeded in all Wells of a 384 well polypropylene plate (Weidmann #23490-101). Then 10 μl of antibodies diluted in assay buffer (double concentrated), at a start concentration of 100 μg/ml, serially diluted 1:4 were added to the plate. After 90 minutes incubation at 4° C., 60 μl assay buffer was added followed by a centrifuge step (330×g, 5 min) and an aspirating step (BioTek washer 405H) where 60 μl of supernatant were discarded. 20 μl of detection antibody (Alpaca anti rabbit IgG Chromotek #srbAF647-1) diluted in assay buffer (double concentrated) to a final concentration of 0.5 μg/ml was added to all Wells followed by 1 hour incubation time at room temperature. The cells were then subjected to two washing steps with 40 μl and 60 μl assay buffer as described above and then resuspended in 20 μl assay buffer. Cell binding was measured on an iQue Screener Plus high throughput FACS device from Sartorius/Intellicyt.

Experiment [2] addresses T1, human CEACAM5. Put plainly: FACS on MKN-45 cells expressing human CEACAM5. On the procedure:
The cellular binding assay was performed as follows.
as §1
The source holds these as a separate data set.

A further experiment addresses T2, human CEACAM1 (human, UniProt P13688 35-526).
T2 construct: whole, on cells; also called CHO-CEACAM1
T2 sequence (looked up): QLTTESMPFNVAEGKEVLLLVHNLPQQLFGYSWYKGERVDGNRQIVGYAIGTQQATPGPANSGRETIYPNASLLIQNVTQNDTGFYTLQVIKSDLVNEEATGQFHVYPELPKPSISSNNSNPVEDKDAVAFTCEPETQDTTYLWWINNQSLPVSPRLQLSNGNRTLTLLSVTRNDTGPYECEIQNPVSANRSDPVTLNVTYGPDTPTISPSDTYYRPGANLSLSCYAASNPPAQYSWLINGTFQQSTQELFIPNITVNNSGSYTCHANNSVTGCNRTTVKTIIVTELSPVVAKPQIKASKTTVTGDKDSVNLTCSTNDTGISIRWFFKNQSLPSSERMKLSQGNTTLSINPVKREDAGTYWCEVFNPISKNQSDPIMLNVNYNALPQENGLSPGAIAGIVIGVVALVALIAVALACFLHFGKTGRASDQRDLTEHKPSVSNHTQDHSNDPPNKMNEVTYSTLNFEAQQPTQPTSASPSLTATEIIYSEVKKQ
The experiment is described as follows: FACS on CHO cells overexpressing human CEACAM1. How it is done:
(§2) Viability of CHO-CEACAM1 (CHO cells overexpressing human CEACAM1) and CHO-CEACAM6 (CHO cells overexpressing human CEACAM6) cells was checked. Then 100 μl of re-suspended target cells were seeded into a U-bottom plate (100′000 cells/well). The antibodies were diluted in FACS buffer. The plates were centrifuged for 4 min at 400×g and supernatant was removed. Then 25 µl/well of the diluted antibodies were added to the cells. The cells were incubated for 45 min at 4° C. After the incubation, cells were washed twice and 25 μl/well of diluted (1/100 in FACS buffer) PE anti-human Fc secondary antibody (Jackson Immuno Research, #109-116-170) or the directly labeled CD66 antibody (Clone B1.1/CD66, BD Bioscience, #551480) was added to the cells. The cells were incubated for 45 min at 4° C. After the incubation, cells were washed twice. Then cells were re-suspended in 150 μl/well of FACS buffer. Cell binding was measured on the BD LSRFortessa Flow Cytometer, the same day.

The next experiment addresses T3, human CEACAM6 (human, UniProt P40199 35-320).
T3 construct: whole, on cells; also called CHO-CEACAM6
T3 sequence (looked up): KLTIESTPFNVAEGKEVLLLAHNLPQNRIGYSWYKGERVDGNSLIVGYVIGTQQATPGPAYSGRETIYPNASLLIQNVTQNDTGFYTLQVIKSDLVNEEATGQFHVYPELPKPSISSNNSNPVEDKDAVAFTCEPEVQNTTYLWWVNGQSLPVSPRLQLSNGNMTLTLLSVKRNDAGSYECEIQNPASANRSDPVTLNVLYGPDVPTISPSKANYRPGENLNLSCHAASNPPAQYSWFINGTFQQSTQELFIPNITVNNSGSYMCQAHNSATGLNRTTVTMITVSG
The experiment is described as follows: FACS on CHO cells overexpressing human CEACAM6. How it is done: as §2

B1: T84.66-LCHA (P1AH2338) (antibody, V domains shown)
VH: QVQLVQSGAEVKKPGSSVKVSCKASGFNIKDTYMHWVRQAPGQGLEWMGRIDPANGNSKYVPKFQGRVTITADTSTSTAYMELSSLRSEDTAVYYCAPFGYYVSDYAMAYWGQGTLVTVSS
VL: EIVLTQSPATLSLSPGERATLSCRAGESVDIFGVGFLHWYQQKPGQAPRLLIYRASNRATGIPARFSGSGSGTDFTLTISSLEPEDFAVYYCQQTNEDPYTFGQGTKLEIK
notes: also called humanized variant 1
The term EC50 denotes the concentration at which the effect is half-maximal. Low readings indicate an effect from little substance, high ones a need for much substance. For B1, the half-maximal effective concentration (EC50) was found to be 0.989 µg/mL with human CEACAM5 [1] and 5.3 nM with human CEACAM5 [2].

B2: P1AH2349 (antibody, human IgG1, V domains shown)
VH: EVQLVESGGGLVQPGGSLRLSCAASGFNIKDTYMHWVRQAPGKGLEWVGRIDPANGNSKYADSVKGRFTISADTSKNTAYLQMNSLRAEDTAVYYCAPFGYYVSDYAMAYWGQGTTVTVSS
VL: EIVLTQSPATLSLSPGERATLSCRAGESVDIFGVGFLHWYQQKPGQAPRLLIYRASNRATGIPARFSGSGSGTDFTLTISSLEPEDFAVYYCQQTNEDPYTFGQGTKLEIK
notes: also called rehumanized improved expression variant
As to B2, the EC50 in the experiment with human CEACAM5 [1] amounted to 1.11 µg/mL; with human CEACAM5 [2], 7.2 nM.

B3: P1AI5015 (antibody, human IgG1, V domains shown)
VH: EVQLVESGGGLVQPGGSLRLSCAASGFNIKDTYMHWVRQAPGKGLEWVGRIDPANGNSKYADSVKGRFTISADTSKNTAYLQMNSLRAEDTAVYYCAPFGYYVSDYAMAYWGQGTTVTVSS
VL: EIVLTQSPATLSLSPGERATLSCRAGESVDIFGVGFLHWYQQKPGQAPRLLIYRGSNRATGIPARFSGSGSGTDFTLTISSLEPEDFAVYYCQQTYEYPYTFGQGTKLEIK
Take B3: the binding result in the experiment with human CEACAM1 and with human CEACAM6 was “no binding” throughout. In the experiment with human CEACAM5 [1], this molecule had an EC50 of 0.483 µg/mL.

B4: P1AH2368 (antibody, V domains shown)
VH: QVQLVQSGAEVKKPGSSVKVSCKASGFNIKDTYMHWVRQAPGQGLEWMGRIDPANGNSKYVPKFQGRVTITADTSTSTAYMELSSLRSEDTAVYYCAPFGYYVSDYAMAYWGQGTLVTVSS
VL: EIVLTQSPATLSLSPGERATLSCRAGESVDSYGVGFLHWYQQKPGQAPRLLIYRASNRATGIPARFSGSGSGTDFTLTISSLEPEDFAVYYCQQTNEDPYTFGQGTKLEIK
For B4, the EC50 with human CEACAM5 [2] stood at 2.5 nM.

B5: P1AH2369 (antibody, V domains shown)
VH: QVQLVQSGAEVKKPGSSVKVSCKASGFNIKDTYMHWVRQAPGQGLEWMGRIDPANGNSKYVPKFQGRVTITADTSTSTAYMELSSLRSEDTAVYYCAPFGYYVSDYAMAYWGQGTLVTVSS
VL: EIVLTQSPATLSLSPGERATLSCRAGESVDIFGNSFLHWYQQKPGQAPRLLIYRASNRATGIPARFSGSGSGTDFTLTISSLEPEDFAVYYCQQTNEDPYTFGQGTKLEIK
Molecule B5 displayed an EC50 with human CEACAM5 [2] of 5.5 nM.

B6: P1AH2359 (antibody, human IgG1, name in Kabat numbering, V domains shown)
VH: QVQLVQSGAEVKKPGSSVKVSCKASGFNIKDTYMHWVRQAPGQGLEWMGRIDPANGNSKYVPKFQGRVTITADTSTSTAYMQLSSLRSEDTAVYYCAPFGYYVSDYAMAYWGQGTLVTVSS
VL: EIVLTQSPATLSLSPGERATLSCRAGESVDIFGVGFLHWYQQKPGQAPRLLIYRASNRATGIPARFSGSGSGTDFTLTISSLEPEDFAVYYCQQTNEDPYTFGQGTKLEIK
B6 yielded an EC50 with human CEACAM5 [2] of 12.9 nM.

B7: P1AI5014 (antibody, human IgG1, V domains shown)
VH: EVQLVESGGGLVQPGGSLRLSCAASGFNIKDTYMHWVRQAPGKGLEWVGRIDPANGNSKYADSVKGRFTISADTSKNTAYLQMNSLRAEDTAVYYCAPFGYYVSDYAMAYWGQGTTVTVSS
VL: EIVLTQSPATLSLSPGERATLSCRAGESVDIFGVGFLHWYQQKPGQAPRLLIYRGSNRATGIPARFSGSGSGTDFTLTISSLEPEDFAVYYCQQTNEDPYTFGQGTKLEIK
As for B7, the binding result in the experiment with human CEACAM1 and with human CEACAM6 was “no binding” throughout. In the experiment with human CEACAM5 [1], this molecule gave an EC50 of 1.53 µg/mL.

B8: P1AH2364 (antibody, human IgG1, name in Kabat numbering, V domains shown)
VH: QVQLVQSGAEVKKPGSSVKVSCKASGFNIKDTYMHWVRQAPGQGLEWMGRIDPANGNSKYVPKFQGRVTITADTSTSTAYMELSSLRSEDTAVYYCAPFGYYVSDYAMAYWGQGTLVTVSS
VL: EIVLTQSPATLSLSPGERATLSCRAGESVDIFGVGFLHWYQQKPGQAPRLLIYRGSNRATGIPARFSGSGSGTDFTLTISSLEPEDFAVYYCQQTNEDPYTFGQGTKLEIK
For the molecule B8, the midpoint of the response in the experiment with human CEACAM5 [2], the EC50, lay at 1.9 nM.

B9: P1AH2370 (antibody, human IgG1, name in Kabat numbering, V domains shown)
VH: QVQLVQSGAEVKKPGSSVKVSCKASGFNIKDTYMHWVRQAPGQGLEWMGRIDPANGNSKYVPKFQGRVTITADTSTSTAYMELSSLRSEDTAVYYCAPFGYYVSDYAMAYWGQGTLVTVSS
VL: EIVLTQSPATLSLSPGERATLSCRAGESVSIFGVGFLHWYQQKPGQAPRLLIYRASNRATGIPARFSGSGSGTDFTLTISSLEPEDFAVYYCQQTNEDPYTFGQGTKLEIK
For the molecule B9, it took 3.1 nM to reach a half-maximal effect with human CEACAM5 [2] (EC50).

B10: P1AH2366 (antibody, human IgG1, name in Kabat numbering, V domains shown)
VH: QVQLVQSGAEVKKPGSSVKVSCKASGFNIKDTYMHWVRQAPGQGLEWMGRIDPANGNSKYVPKFQGRVTITADTSTSTAYMELSSLRSEDTAVYYCAPFGYYVSDYAMAYWGQGTLVTVSS
VL: EIVLTQSPATLSLSPGERATLSCRAGESVDIYGVGFLHWYQQKPGQAPRLLIYRASNRATGIPARFSGSGSGTDFTLTISSLEPEDFAVYYCQQTNEDPYTFGQGTKLEIK
notes: Kabat positions
B10: in the experiment with human CEACAM5 [2], the EC50 turned out to be 2.7 nM. This EC50 and that of the molecule before are within 1.5-fold of each other.

B11: P1AH2361 (antibody, human IgG1, name in Kabat numbering, V domains shown)
VH: QVQLVQSGAEVKKPGSSVKVSCKASGFNITDTYMHWVRQAPGQGLEWMGRIDPANGNSKYVPKFQGRVTITADTSTSTAYMELSSLRSEDTAVYYCAPFGYYVSDYAMAYWGQGTLVTVSS
VL: EIVLTQSPATLSLSPGERATLSCRAGESVDIFGVGFLHWYQQKPGQAPRLLIYRASNRATGIPARFSGSGSGTDFTLTISSLEPEDFAVYYCQQTNEDPYTFGQGTKLEIK
In the case of B11, the EC50 with human CEACAM5 [2] stood at 21.9 nM. Compared with the last molecule, the EC50 is about 8.1-fold higher.

B12: P1AH2373 (antibody, human IgG1, name in Kabat numbering, V domains shown)
VH: QVQLVQSGAEVKKPGSSVKVSCKASGFNIKDTYMHWVRQAPGQGLEWMGRIDPANGNSKYVPKFQGRVTITADTSTSTAYMELSSLRSEDTAVYYCAPFGYYVSDYAMAYWGQGTLVTVSS
VL: EIVLTQSPATLSLSPGERATLSCRAGESVDIFGVGFLHWYQQKPGQAPRLLIYRASNRATGIPARFSGSGSGTDFTLTISSLEPEDFAVYYCQQTNENPYTFGQGTKLEIK
B12 came in with an EC50 in the experiment with human CEACAM5 [2] of 2.5 nM. Compared with the last molecule, the EC50 is about 8.8-fold lower.
